# Source: IntAct's records for PubMed 7518772
# B1: Receptor-type tyrosine-protein phosphatase alpha (Mus musculus), P18052 (parent)
# chain: MDSWFILVLFGSGLIHVSANNATTVSPSLGTTRLIKTSTTELAKEENKTSNSTSSVISLSVAPTFSPNLTLEPTYVTTVNSSHSDNGTRRAASTESGGTTISPNGSWLIENQFTDAITEPWEGNSSTAATTPETFPPADETPIIAVMVALSSLLVIVFIIIVLYMLRFKKYKQAGSHSNSFRLSNGRTEDVEPQSVPLLARSPSTNRKYPPLPVDKLEEEINRRMADDNKLFREEFNALPACPIQATCEAASKEENKEKNRYVNILPFLSLAVSKDAVKALNKTTPLLERRFIGKSNSRGCLSDDHSRVHLTPVEGVPDSDYINASFINGYQEKNKFIAAQGPKEETVNDFWRMIWEQNTATIVMVTNLKERKECKCAQYWPDQGCWTYGNVRVSVEDVTVLVDYTVRKFCIQQVGDVTNRKPQRLITQFHFTSWPDFGVPFTPIGMLKFLKKVKACNPQYAGAIVVHCSAGVGRTGTFVVIDAMLDMMHSERKVDVYGFVSRIRAQRCQMVQTDMQYVFIYQALLEHYLYGDTELEVTSLETHLQKIYNKIPGTSNNGLEEEFKKLTSIKIQNDKMRTGNLPANMKKNRVLQIIPYEFNRVIIPVKRGEENTDYVNASFIDGYRQKDSYIASQGPLLHTIEDFWRMIWEWKSCSIVMLTELEERGQEKCAQYWPSDGLVSYGDITVELKKEEECESYTVRDLLVTNTRENKSRQIRQFHFHGWPEVGIPSDGKGMINIIAAVQKQQQQSGNHPITVHCSAGAGRTGTFCALSTVLERVKAEGILDVFQTVKSLRLQRPHMVQTLEQYEFCYKVVQEYIDAFSDYANFK
# Variants of: B1
# Settings: with src_mouse Src
row,Variant,effect of a mutation on the interaction
1,Y825F,disrupting interaction
